Reference: the supplement of paper PMC12042874
± gives the uncertainty stated by the source.

Assay: amyloid nucleation score (Sup35N fusion, yeast selection) (log enrichment); library NNK1; higher = more nucleation; inactive = no reads after selection
How it was run: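 Output and input plasmid inserts were sequenced by Illumina after psi-negative yeast carrying Sup35N fused to peptides of 20 random codons had been induced 24 hours with 100 μM copper sulfate and grown 7 days at 30°C on medium lacking adenine and uracil. The nucleation score is the DiMSum log enrichment of output over input reads, centred on the mode score of non-aggregating sequences. Sequences with under 100 input reads were excluded.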

In order of falling amyloid nucleation score:
1. CSIVYCMCGLCAS  8.43 ± 0.055
2. MDCTFINGFRVFNLSNSR  7.967 ± 0.059
3. FNYYITFHCTCELECRGYCT  7.841 ± 0.05
4. YNFVSCLVYRK  6.9 ± 0.071
5. HNELCFMFYSLGNCYGAGVG  5.03 ± 0.095
6. TVMHSAMIYILVPVSGSGQV  5 ± 0.064
7. SHTADFRVLLRLIQYERGLR  3.44 ± 0.18
8. SRLYVCFALSSLSISRNNYG  3.11 ± 0.22
9. ANRHRNRRSSSRDVFMFVIC  3.02 ± 0.19
10. RSFCRSSVIFVFP  2.79 ± 0.19
11. HWTMYLVQLDSDSAIFFGHM  2.52 ± 0.15
12. AIGCVWVRNRVAIVGERVAK  2.08 ± 0.23
13. ILADIVDATWNFKSSISFLG  1.74 ± 0.16
14. VLRQMS  1.67 ± 0.19
15. DGFCCGIYYILSEMTGHSRS  1.41 ± 0.65
16. YQVMLRSCLYLLYFSMFNCL  1.27 ± 0.79
17. NRNERVTHSSQFSIGFEERM  1.14 ± 0.57
18. AIIDMDMSFRSGGCTNGVDV  1.06 ± 0.32
19. DGLKWVDWPWGHYGEMMVEM  1.01 ± 0.55
20. DRFLETICSEGSRPGSGN  0.917 ± 0.21
21. LRVNIPVTQSSTVIHY  0.91 ± 0.39
22. SVNLGGHAGCCGCWAYGGFR  0.851 ± 0.37
23. ANALDCINDWDKSSQSCQGP  0.812 ± 0.53
24. RRLFMGPI  0.802 ± 1
25. RFARHCSRIS  0.769 ± 0.36
26. LQCQN  0.702 ± 0.4
27. VKVCSSSMRFNVL  0.689 ± 0.58
28. QDTRTLQGCRQWQRWITAEG  0.678 ± 0.84
29. CLVKTSSVSTIWLVSCNTRT  0.648 ± 0.55
30. LECYEVYRYRKCLCCIVCVC  0.633 ± 0.42
31. VSKRFRFLRTLFIEECDLRH  0.576 ± 0.32
32. NGLFAYVRM  0.505 ± 0.27
33. RSHVVTGYARSGRGLLATDM  0.396 ± 0.45
34. WSKDNTIVEISYGTSGLVQL  0.39 ± 0.26
35. ITYSTYLMSCGRSMYQGWKV  0.372 ± 0.23
36. YWGPKDAMGMSFIVSWDGPP  0.367 ± 0.31
37. GIRQLMAPYKPERWCWQRVG  0.344 ± 0.51
38. EALCHMWQYSGCP  0.324 ± 0.66
39. GICDLLAHG  0.322 ± 0.25
40. HNGHPRTAWVVVQY  0.298 ± 0.28
41. YVSEEMNGLVMYQSNWGSVT  0.224 ± 0.54
42. LSKYGVCVALLCIWMGHNWC  0.22 ± 0.2
43. QCANAVNHRTLGLMLFKMVL  0.19 ± 0.5
44. AGIKIGKEKGCHNYRFWWTV  0.124 ± 0.5
45. FICVMTRSGQDSSGMLLREG  0.105 ± 0.2
46. SLLDSEGVRYLIMEL  0.102 ± 0.4
47. DTSGSYMLSYLWGYWQLRSA  0.073 ± 0.56
48. MTTRIFSLKIA  0.066 ± 0.81
49. SDSLFPTPLDFKMKIWGIMV  0.062 ± 0.85
50. YYCTQRLNSHSVLMSLADRW  0.035 ± 0.76
51. LLPGLIEWSVGLMCLIL  0.023 ± 0.9
52. EFERVRYLYCGRPVPSHILL  0.005 ± 0.89
53. LNRFLYDSCLFSCYFGYMVA  -0.017 ± 0.25
54. SSNSGYSWSFTAWMGLGMRR  -0.037 ± 1.7
55. STLPMHRNMTLRRLSCVQSY  -0.069 ± 0.34
56. QISSTRIDW  -0.074 ± 0.32
57. VNLRCRSTLEGSN  -0.077 ± 0.31
58. LSVAHDGSLWVLFRKKPFGL  -0.106 ± 0.57
59. MTWIENKPLHNVRCRGIIAV  -0.12 ± 0.43
60. TFWVGEKSRVGSVPFQYLRL  -0.152 ± 0.31
61. MLTECSRFLNVFGVGEHEVN  -0.162 ± 0.58
62. QVSANSKNKSVVLFQIKSNE  -0.17 ± 0.4
63. YGFKLGMFTGSIAMYAGHLI  -0.198 ± 0.31
64. LQFNSLAVLGVPGEMNEQTG  -0.228 ± 0.58
65. GTGCFRCTVSTVGSVFIRDE  -0.27 ± 0.64
66. RPYGVNR  -0.271 ± 0.66
67. KEIIEMWSTFTYNQIWCDWI  -0.322 ± 0.42
68. NNCSWIIGHRVVPTSRGE  -0.329 ± 0.45
69. SLPRPIMFSLVVIILYNFVR  -0.333 ± 0.47
70. GDSRTLGLLCFYMKVG  -0.352 ± 0.41
71. GGIYSLSMNIVWATGCL  -0.361 ± 0.93
72. SLFQGERIPFGWNEGQTKDV  -0.469 ± 1.2
73. RFRVEGPMYFICICKRLFTY  -0.555 ± 0.44
74. LCFMLEKWHLF  -0.566 ± 1.1
75. VLLSQIVGIWAL  -0.642 ± 0.67
76. GEGSCGVSLSSMYLQWGARV  -0.663 ± 0.83
77. TNFCGVNPGRIIRLWEDRSW  -0.762 ± 0.45
78. KFKKFGSSDGLDCDRYILVG  -0.799 ± 1.2
79. AYICYLILFQSQRVW  -0.827 ± 1.7
80. SNFKK  -1.06 ± 0.64

For SNGRFWYMADSVST, the amyloid nucleation score was “inactive”.
For HFVASDYHNVGSA, the amyloid nucleation score was “inactive”.
For RRSWVFFVDWFIFVCLCVNG, the amyloid nucleation score was “inactive”.
With RMLCYEFCCLNLDVGIYCAS the amyloid nucleation score was “inactive”.
In the case of NESEFLFSKAHRMVVIP, the amyloid nucleation score is reported as “inactive”.
With FTRSQAV the amyloid nucleation score was “inactive”.
